Experimental data taken from patent publication US20210032351A1 (XDCEXPLORER SHANGHAI, published 2021).
“And” between values parts separate entries of the source, which are not always exact repeats. Equal entries are not always repeated. Where two headings read alike, the source gives them in different places. Ends that are not written are not given here. * marks the point of attachment. Biotin = O=C1N[C@H]2[C@H](CS[C@H]2CCCCC(=O)*)N1

How the values were obtained:
pep19 = molecular target: T1, pep19; experiment: peptide dot matrix ELISA
T1 sequence (peptide, C-terminal K(Biotin)): ACGADSYEMEEDGVRKK

pep20 = molecular target: T2, pep20 (cysteine pairing not given here); experiment: peptide dot matrix ELISA
T2 peptide: CGADSYEMEEDGVRKCK(Biotin)

pep04 [1] = molecular target: T3, pep04; experiment: peptide dot matrix ELISA
T3 sequence (peptide, C-terminal K(Biotin)): KKGNYVVTDHGSCVRAK

pep15 = molecular target: T4, pep15 (cysteine pairing not given here); experiment: peptide dot matrix ELISA
T4 peptide: SCVRACGADSYEMEEDK(Biotin)

pep14 = molecular target: T5, pep14 (cysteine pairing not given here); experiment: peptide dot matrix ELISA
T5 peptide: GSCVRACGADSYEMEEK(Biotin)

pep21 = molecular target: T6, pep21; experiment: peptide dot matrix ELISA
T6 peptide: GADSYEMEEDGVRKCKK(Biotin)

pep06 = molecular target: T7, pep06 (cysteine pairing not given here); experiment: peptide dot matrix ELISA
T7 peptide: GNYVVTDHGSCVRACGK(Biotin)

pep07 = molecular target: T8, pep07 (cysteine pairing not given here); experiment: peptide dot matrix ELISA
T8 peptide: NYVVTDHGSCVRACGAK(Biotin)

pep13 = molecular target: T9, pep13 (cysteine pairing not given here); experiment: peptide dot matrix ELISA
T9 peptide: HGSCVRACGADSYEMEK(Biotin)

pep05 = molecular target: T10, pep05 (cysteine pairing not given here); experiment: peptide dot matrix ELISA
T10 peptide: KGNYVVTDHGSCVRACK(Biotin)

[2] = molecular target: human EGFRvIII-hFc protein (human) (UniProt P00533); experiment: ELISA, EGFRvIII-hFc coated
[3] = molecular target: human wild-type EGFR protein on the cell surface (human) (UniProt P00533); experiment: FACS on CHOk1-EGFR cells
[4] = molecular target: human wild-type EGFR protein on the cell surface (human) (UniProt P00533); experiment: FACS on A431 tumor cells
[5] = molecular target: human EGFRvIII-hFc protein (human) (UniProt P00533); experiment: ELISA, EGFRvIII-hFc coated; remark: listed apart in the source
[6] = molecular target: human EGFRvIII protein on the cell surface (human) (UniProt P00533); experiment: FACS on U87MG-EGFRvIII cells
[7] = molecular target: human wild-type EGFR protein on the cell surface (human) (UniProt P00533); experiment: FACS on normal human primary hepatocytes
[8] = molecular target: human EGFRvIII protein on the cell surface (human) (UniProt P00533); experiment: FACS on CHOk1-EGFRvIII cells
[9] = molecular target: T11, human EGFRvIII-hFc protein (human, UniProt P00533 25-645); experiment: ELISA, plate coated with human EGFRvIII-hFc, HRP secondary antibody, absorbance at 450 nm
T11 construct: extracellular domain; made in HEK293 cells, purified on protein A; also called immunogen A; hFc-tagged EGFRvIII protein; not shown: human IgG Fc fragment (hFc) of the pCpC vector
Experimental: The purified immunogen A (EGFRvIII-hFc) obtained in example 1 (for the preparation method, see step (I) in example 1) is diluted with PBS to a final concentration of 1.0 μg/mL, and then added to a 96-well ELISA plate at 100 μl/well. The plate is sealed with a plastic film and incubated at 4° C. overnight. The next day, the plate is washed twice with a plate washing solution [PBS+0.01% (v/v) Tween20], and added with a blocking solution [PBS+0.01% (v/v) Tween20+1% (w/w) BSA] for blocking 2 hours at room temperature. […] The plate is incubated for 2 hours at 37° C., and then washed 3 times with the plate washing solution [PBS+0.01% (v/v) Tween20]. The plate is added with an HRP (horseradish peroxidase) labeled secondary antibody (purchased from Sigma), incubated at 37° C. for 2 hours, and then washed 3 times with the plate washing solution [PBS+0.01% (v/v) Tween20]. The plate is added with 100 μl of TMB substrate/well, incubated for 30 minutes at room temperature, and then added with 100 μl of stopping solution (1.0N HCl)/well. A450 nm value is read using an ELISA plate reader (SpectraMax 384plus, purchased from Molecular Device), and the results are shown in FIG. 11 and table 19.

[10] = molecular target: T12, human EGFRvIII protein, full length, on transfected cells (human, UniProt P00533 25-1210); experiment: FACS on U87MG-EGFRvIII cells, Alexa 488 secondary antibody, mean fluorescence intensity
T12 construct: whole, on cells; stably transfected CHO-K1, U87MG and HEK293(F) cells; also called hEGFRvIII; mutant EGFRvIII protein
Experimental: The preparation of U87MG-EGFRvIII required for FACS detection is as described in the preparation of the immunogen B in example 1. Normal human primary hepatocytes are purchased from BioreclamationIVT, and A431 tumor cells are purchased from ATCC. […] The cells are washed twice with the HBSS buffer and are counted, and then the cells are diluted with the HBSS buffer to 2×10⁶ cells/ml, added with 1% goat serum blocking solution, with the percentage being the mass percentage, and incubated on ice for 30 minutes, and then centrifugally washed twice with the HBSS buffer. […] The plate is centrifugally washed twice with the FACS buffer, added with 100 μL/well of a 1:1000 diluted fluorescence (Alexa 488) labeled secondary antibody (purchased from Invitrogen), and incubated on ice for 1 hour. […] The cells are resuspended in 100 μL of the FACS buffer, and the results are detected and analyzed by FACS (FACS Calibur, purchased from BD). Data analysis is performed by using the software (CellQuest) to obtain the mean fluorescence intensity (MFI) of the cells. Data is further analyzed by using the software (GraphPad Prism5) to perform data fitting and calculate EC50.

pep04 [11] = molecular target: T13, pep04; experiment: peptide dot matrix ELISA
T13 peptide: KKGNYVVTDHGSCVRAK(Biotin)

pep09 = molecular target: T14, pep09 (cysteine pairing not given here); experiment: peptide dot matrix ELISA
T14 peptide: VVTDHGSCVRACGADSK(Biotin)

pep28 = molecular target: T15, pep28 (cysteine pairing not given here); experiment: peptide dot matrix ELISA
T15 peptide: EEDGVRKCKKCEGPCRK(Biotin)

pep33 = molecular target: T16, pep33 (cysteine pairing not given here); experiment: peptide dot matrix ELISA
T16 peptide: RKCKKCEGPCRKVCNGK(Biotin)

pep11 = molecular target: T17, pep11 (cysteine pairing not given here); experiment: peptide dot matrix ELISA
T17 peptide: TDHGSCVRACGADSYEK(Biotin)

pep10 = molecular target: T18, pep10 (cysteine pairing not given here); experiment: peptide dot matrix ELISA
T18 peptide: VTDHGSCVRACGADSYK(Biotin)

pep08 = molecular target: T19, pep08 (cysteine pairing not given here); experiment: peptide dot matrix ELISA
T19 peptide: YVVTDHGSCVRACGADK(Biotin)

pep17 = molecular target: T20, pep17; experiment: peptide dot matrix ELISA
T20 peptide: VRACGADSYEMEEDGVK(Biotin)

pep16 = molecular target: T21, pep16 (cysteine pairing not given here); experiment: peptide dot matrix ELISA
T21 peptide: CVRACGADSYEMEEDGK(Biotin)

pep30 = molecular target: T22, pep30 (cysteine pairing not given here); experiment: peptide dot matrix ELISA
T22 peptide: DGVRKCKKCEGPCRKVK(Biotin)

pep34 = molecular target: T23, pep34 (cysteine pairing not given here); experiment: peptide dot matrix ELISA
T23 peptide: KCKKCEGPCRKVCNGIK(Biotin)

pep01 = molecular target: T24, pep01; experiment: peptide dot matrix ELISA
T24 peptide: LEEKKGNYVVTDHGSCK(Biotin)

pep35 = molecular target: T25, pep35 (cysteine pairing not given here); experiment: peptide dot matrix ELISA
T25 peptide: CKKCEGPCRKVCNGIGK(Biotin)

pep31 = molecular target: T26, pep31 (cysteine pairing not given here); experiment: peptide dot matrix ELISA
T26 peptide: GVRKCKKCEGPCRKVCK(Biotin)

pep18 = molecular target: T27, pep18; experiment: peptide dot matrix ELISA
T27 peptide: RACGADSYEMEEDGVRK(Biotin)

pep26 = molecular target: T28, pep26 (cysteine pairing not given here); experiment: peptide dot matrix ELISA
T28 peptide: EMEEDGVRKCKKCEGPK(Biotin)

pep25 = molecular target: T29, pep25 (cysteine pairing not given here); experiment: peptide dot matrix ELISA
T29 peptide: YEMEEDGVRKCKKCEGK(Biotin)

[12] = molecular target: T12, human EGFRvIII protein, full length, on …; experiment: FACS on CHOK-EGFRvIII cells
[13] = molecular target: T11, human EGFRvIII-hFc protein; experiment: ELISA, coated EGFRvIII-hFc
Experimental: The plate is incubated for 2 hours at 37° C., and then washed 3 times with the plate washing solution [PBS+0.01% (v/v) Tween20]. The plate is added with an HRP (horseradish peroxidase) labeled secondary antibody (purchased from Sigma), incubated at 37° C. for 2 hours, and then washed 3 times with the plate washing solution [PBS+0.01% (v/v) Tween20]. The plate is added with 100 μl of TMB substrate/well, incubated for 30 minutes at room temperature, and then added with 100 μl of stopping solution (1.0N HCl)/well. A450 nm value is read using an ELISA plate reader (SpectraMax 384plus, purchased from Molecular Device), and the results are shown in FIG. 11 and table 19.

[14] = molecular target: T30, human EGFR protein (wild-type), on cells (human, UniProt P00533 25-1210); experiment: FACS on CHOK-EGFR cells
T30 construct: whole, on cells; transfected on CHO-K1 cells; endogenous on the human cell lines; the cell is named under assay; also called wild-type EGFR; hEGFR

## hIgG (antibody)
pep19
  ELISA signal: 0.05
pep20
  ELISA signal: 0.12 and 0.1
pep04 [1]
  ELISA signal: 0.05 and 0.06
pep15
  ELISA signal: 0.05 and 0.06
pep14
  ELISA signal: 0.07
pep21
  ELISA signal: 0.06
pep06
  ELISA signal: 0.07 and 0.05
pep07
  ELISA signal: 0.05
pep13
  ELISA signal: 0.06
pep05
  ELISA signal: 0.05 and 0.06
[2]
  Maximum OD450 value: 0.1 OD450
[3]
  Maximum mean fluorescence intensity: 144 MFI
[4]
  MFI: 388 MFI
[5]
  Maximum OD450 value: 0.17 OD450
[6]
  Maximum mean fluorescence intensity: 0 MFI
[7]
  MFI: 219 MFI
[8]
  Maximum mean fluorescence intensity: 133 MFI

B1: Chimeric antibody 63A10 (antibody, human IgG1, V domains shown)
VH: QVQLQQSGAELARPGASVKMSCKASGYTFISFTMHWVKQRPGQGLEWIGYINPNSGYTKYNQKFKDKATLTAGQSSSTAYMQLSSLTSEDSAVYYCTRGGGRGFAYWGQGTLVTVSA
VL: DILMTQSPSSMSVSLGDTVTITCHASQDINSNIGWLQQKPGKSFKALIYHGTNLEDGVPSRFSGSGSGADYSLTISSLESEDFADYYCVQYAQFPFTFGSGTKLEIK
notes: also called c63A10A7
[9]
  EC50 (read off the curve): ~0.03 nM
[10]
  EC50 (read off the curve): ~2 nM

B2: Chimeric antibody 63A10 (antibody, V domains shown)
VH: QVQLQQSGAELARPGASVKMSCKASGYTFISFTMHWVKQRPGQGLEWIGYINPNSGYTKYNQKFKDKATLTAGQSSSTAYMQLSSLTSEDSAVYYCTRGGGRGFAYWGQGTLVTVSA
VL: DILMTQSPSSMSVSLGDTVTITCHASQDINSNIGWLQQKPGKSFKALIYHGTNLEDGVPSRFSGSGSGADYSLTISSLESEDFADYYCVQYAQFPFTFGSGTKLEIK
notes: also called c63A10A7
pep04 [11]
  ELISA signal: 0.06
pep09
  ELISA signal: 0.05
pep28
  ELISA signal: 0.06
pep33
  ELISA signal: 0.07
pep11
  ELISA signal: 0.05
pep10
  ELISA signal: 0.05
pep08
  ELISA signal: 0.05
pep17
  ELISA signal: 0.05
pep16
  ELISA signal: 0.05
pep30
  ELISA signal: 0.06
pep34
  ELISA signal: 0.07
pep01
  ELISA signal: 0.05
pep35
  ELISA signal: 0.07
pep31
  ELISA signal: 0.06
pep18
  ELISA signal: 0.05
pep26
  ELISA signal: 0.33
pep25
  ELISA signal: 0.06

B3: c75G7C6-3 (antibody, human IgG1, V domains shown)
VH: EVQLQQSGPELVKPGASVKIPCKASGYTFTDYNMDWVKQSHGKSLEWIGDINPNNGDTIYNQKFKGKATLTVDKSSSTAYMELRSLTSEDTAVYYCARGDYEGYYPVYYAMDYWGQGTSVTVSS
VL: ENVLTQSPAIMSASPGEKVTMTCRASSSVSSSYLHWYQQKSGASPKLWIFSTSNLAAGVPARFSGSGSGTSYSLTVSSVEAEDAATYYCQQYSGYPLTFGAGTKLELK
notes: chimeric, human IgG1 / kappa; DG of heavy chain CDR3 mutated to EG; also called DG/EG mutant
[12]
  fold decrease in binding ability compared to the wild-type chimeric antibody c75G7C6: 2.5 fold
[13]
  fold decrease in binding ability compared to the wild-type chimeric antibody c75G7C6: 22 fold
[14]
  fold decrease in binding ability compared to the wild-type chimeric antibody c75G7C6: 3 fold
